Laboratory results published in patent publication CN111635459A (BEIJING GUANGWEI BIOTECHNOLOGY CO LTD, dated 2020).

Experiments:
[1] = target: T1, U937细胞表面的CD47 (human, UniProt Q08722 19-323); test: flow cytometry on U937 cells, blocking of FITC-SIRPα (100 ng/mL) binding to cell-surface CD47; antibody 0.03-50 μg/mL
T1 construct: whole, on cells; also called CD47 on U937 cells

[2] = target: T2, 人CD47抗原蛋白 (human, UniProt Q08722 19-139, limits assumed); test: SPR (Biacore 3000), antibody captured by anti-human Fc on CM5 chip, CD47 antigen 200-3.125 nM as analyte
T2 construct: The construct is not described; also called CD47蛋白
T2 sequence (Q08722 19-139 limits assumed): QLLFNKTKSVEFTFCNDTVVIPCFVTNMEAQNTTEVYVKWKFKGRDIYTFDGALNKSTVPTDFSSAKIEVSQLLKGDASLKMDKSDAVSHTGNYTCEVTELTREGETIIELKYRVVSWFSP

T1 sequence (Q08722 19-323): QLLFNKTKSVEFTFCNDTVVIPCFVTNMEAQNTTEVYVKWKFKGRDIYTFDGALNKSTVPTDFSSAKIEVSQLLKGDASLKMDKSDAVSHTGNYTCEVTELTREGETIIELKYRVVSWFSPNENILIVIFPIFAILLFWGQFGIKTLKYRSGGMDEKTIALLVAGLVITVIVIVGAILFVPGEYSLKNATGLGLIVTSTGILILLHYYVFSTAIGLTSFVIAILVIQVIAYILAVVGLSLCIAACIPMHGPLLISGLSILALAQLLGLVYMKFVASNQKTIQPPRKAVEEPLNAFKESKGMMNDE

IC50 [1]: 1.37 µg/mL
Kd [2]: 0.0934 nM
koff [2]: 3.84e-05 s⁻¹
kon [2]: 411000 M⁻¹ s⁻¹
B1: 对照抗体W3452-1.164.16-z11 (antibody, V domains shown)
VH: QVQLQESGPGLVKPSETLSLTCTVSGFSLTNYHVYWIRQPPGKGLEWIGVMWNHGDTSYNSPLKSRVTISVDTSKSQFSLKLSSVTAADTAVYYCARGGYVPDYWGQGTMVTVSS
VL: DIVMTQSPLSLPVTPGEPASISCRSSQSLVHSNAKTYLHWYLQKPGQSPQLLIYRVSNRFSGVPDRFSGSGSGTDFTLKISRVEAEDVGVYYCLQTTHFPYTFGQGTKLEIK
